# Data published in paper PMC11187563, “The importance of tyrosines in multimers of cyclic RGD nonapeptides: towards αvβ6-integrin targeted radiotherapeutics” (RSC Medicinal Chemistry, 2024).
# Where two headings read alike, the source gives them in different places.
# Columns and labels:
# [1] = Ex vivo biodistribution of 177Lu-labeled peptide tetramers in H2009 xenografted SCID mice; conditions: CB17 SCID, mouse, iv, total radioactivity, H2009 bearing SCID mice; for tissue uptake at 72 h / tissue to tissue ratio at 72 h: 70 pmol, 3 d p.i.; for tissue uptake at 1.5 h / tissue to tissue ratio at 1.5 h: 118 pmol, 90 min p.i.
# Experimental: (§1) The biodistribution of the ^177Lu-labeled peptide conjugates was investigated in severe combined immunodeficiency (SCID) mice bearing subcutaneous xenografts of the αvβ6-integrin expressing human lung adenocarcinoma cell line H2009 on their right shoulders. Two representative time points after i.v. administration (p.i.) were evaluated.
# (§2) Analytical HPLC was performed on a Shimadzu (Kyoto, Japan) Prominence HPLC system equipped with either a Dr. Maisch ReproSil Pur C18 AQ 150 × 4.6 mm, 5 μm, 120 Å (AC1) or a Phenomenex Kinetex C18 150 × 4.6 mm 5 μm column (AC2). Semipreparative HPLC was performed on a Shimadzu HPLC system equipped with either a Dr. Maisch ReproSil Pur C18 AQ 250 × 10 mm, 5 μm, 120 Å column with 5 mL min^−1 flow (PC1) or a Dr. Maisch ReproSil Pur C18 150 × 30 mm, 5 μm, 120 Å column with 20 mL min^−1 flow (PC2). Solvents for both systems were water (A) and acetonitrile (B) each supplemented with 0.1% (vol) trifluoroacetic acid (TFA). ESI-MS spectra (positive mode) were recorded on a Shimadzu LC-MS 2020 single quadrupol mass spectrometer. Solvents for MS applications were water (A) and acetonitrile (B) each supplemented with 0.1% (vol) formic acid. The other experimental procedures (determination of log D7.4, cultivation of H2009 human lung adenocarcinoma cells, generation of tumor xenografts in CB17 SCID mice, and biodistribution) were performed as described before.[28] All animal experiments have been carried out according to applicable law and institutional guidelines of Technical University of Munich, and were approved by the responsible local authority (Regierung von Oberbayern). The H2009 cells were regularly authenticated and tested for mycoplasma contamination. DOTPI-tetraazide,[43]FF (previously termed AvB6),[29]FY,[34] and YY (also referred to as Tyr2-alkyne)[36] were synthesized as described previously.
# [2] = tested on: αvβ6-integrin expressing human lung adenocarcinoma cell line H2009 xenografts; assay: as above; conditions: H2009 bearing SCID mice
# Experimental: as §1, §2
# [3] = H2009 tumor, read-out: Tumor H2009 %IA/g
# [4] = adrenals, read-out: Adrenals %IA/g
# [5] = heart (myocard), read-out: Heart (myocard) %IA/g
# [6] = kidneys, read-out: Kidneys %IA/g
# [7] = large intestine (empty), read-out: Large intestine (empty) %IA/g
# [8] = pancreas, read-out: Pancreas %IA/g
# [9] = small intestine (empty), read-out: Small intestine (empty) %IA/g
# [10] = stomach (empty), read-out: Stomach (empty) %IA/g
# [11] = tumor/blood, read-out: tumor/organ ratio, Blood
# [12] = tumor/heart (myocard), read-out: tumor/organ ratio, Heart (myocard)
# [13] = tumor/liver, read-out: tumor/organ ratio, Liver
# [14] = tumor/lung, read-out: tumor/organ ratio, Lung
# [15] = tumor/pancreas, read-out: tumor/organ ratio, Pancreas
# [16] = tumor/spleen, read-out: tumor/organ ratio, Spleen
structure (smiles),measurement,setting,value
"CC(C)C[C@@H]1NC(=O)[C@H](CC(=O)O)NC(=O)CNC(=O)[C@H](CCCNC(=N)N)NC(=O)[C@H](Cc2ccccc2)NC(=O)[C@H](CCCCNC(=O)CCC(=O)NCCCC[C@H](NC(=O)[C@H](Cc2ccccc2)NC(=O)CNC(=O)CCc2cn(CCCNC(=O)CCP(=O)(O)CN3CCN(CP(=O)(O)CCC(=O)NCCCn4cc(CCC(=O)NCC(=O)N[C@@H](Cc5ccccc5)C(=O)N[C@@H](CCCCNC(=O)CCC(=O)NCCCC[C@H]5C(=O)N[C@@H](Cc6ccccc6)C(=O)N[C@@H](CCCNC(=N)N)C(=O)NCC(=O)N[C@@H](CC(=O)O)C(=O)N[C@@H](CC(C)C)C(=O)N[C@@H](C)C(=O)N[C@@H](Cc6ccc(O)cc6)C(=O)N6CCC[C@@H]6C(=O)N5C)C(=O)O)nn4)CCN(CP(=O)(O)CCC(=O)NCCCn4cc(CCC(=O)NCC(=O)N[C@@H](Cc5ccccc5)C(=O)N[C@@H](CCCCNC(=O)CCC(=O)NCCCC[C@H]5C(=O)N[C@@H](Cc6ccccc6)C(=O)N[C@@H](CCCNC(=N)N)C(=O)NCC(=O)N[C@@H](CC(=O)O)C(=O)N[C@@H](CC(C)C)C(=O)N[C@@H](C)C(=O)N[C@@H](Cc6ccc(O)cc6)C(=O)N6CCC[C@@H]6C(=O)N5C)C(=O)O)nn4)CCN(CP(=O)(O)CCC(=O)NCCCn4cc(CCC(=O)NCC(=O)N[C@@H](Cc5ccccc5)C(=O)N[C@@H](CCCCNC(=O)CCC(=O)NCCCC[C@H]5C(=O)N[C@@H](Cc6ccccc6)C(=O)N[C@@H](CCCNC(=N)N)C(=O)NCC(=O)N[C@@H](CC(=O)O)C(=O)N[C@@H](CC(C)C)C(=O)N[C@@H](C)C(=O)N[C@@H](Cc6ccc(O)cc6)C(=O)N6CCC[C@@H]6C(=O)N5C)C(=O)O)nn4)CC3)nn2)C(=O)O)N(C)C(=O)[C@H]2CCCN2C(=O)[C@H](Cc2ccc(O)cc2)NC(=O)[C@H](C)NC1=O [Compound 177Lu-GFK-Y4, metal not drawn]",tissue uptake at 72 h,[1]; [3],0.77 %ID/g
same,tissue uptake at 1.5 h,[1]; [3],1.74 %ID/g
same,tissue uptake at 72 h,[1]; [4],0.25 %ID/g
same,tissue uptake at 1.5 h,[1]; [4],0.95 %ID/g
same,tissue uptake at 72 h,"[1]; blood, read-out: Blood %IA/g",0.02 %ID/g
same,tissue uptake at 1.5 h,"[1]; blood, read-out: Blood %IA/g",0.44 %ID/g
same,tissue uptake at 72 h,"[1]; bone, read-out: Bone %IA/g",0.25 %ID/g
same,tissue uptake at 1.5 h,"[1]; bone, read-out: Bone %IA/g",0.49 %ID/g
same,tissue uptake at 72 h,[1]; [5],0.12 %ID/g
same,tissue uptake at 1.5 h,[1]; [5],0.32 %ID/g
same,tissue uptake at 72 h,[1]; [6],169 %ID/g
same,tissue uptake at 1.5 h,[1]; [6],274 %ID/g
same,tissue uptake at 72 h,[1]; [7],0.78 %ID/g
same,tissue uptake at 1.5 h,[1]; [7],1.76 %ID/g
same,tissue uptake at 72 h,"[1]; liver, read-out: Liver %IA/g",0.48 %ID/g
same,tissue uptake at 1.5 h,"[1]; liver, read-out: Liver %IA/g",1.16 %ID/g
same,tissue uptake at 72 h,"[1]; lung, read-out: Lung %IA/g",0.5 %ID/g
same,tissue uptake at 1.5 h,"[1]; lung, read-out: Lung %IA/g",2.88 %ID/g
same,tissue uptake at 72 h,"[1]; muscle, read-out: Muscle %IA/g",0.13 %ID/g
same,tissue uptake at 1.5 h,"[1]; muscle, read-out: Muscle %IA/g",0.26 %ID/g
same,tissue uptake at 72 h,[1]; [8],0.08 %ID/g
same,tissue uptake at 1.5 h,[1]; [8],0.14 %ID/g
same,tissue uptake at 72 h,[1]; [9],0.15 %ID/g
same,tissue uptake at 1.5 h,[1]; [9],0.73 %ID/g
same,tissue uptake at 72 h,"[1]; spleen, read-out: Spleen %IA/g",0.86 %ID/g
same,tissue uptake at 1.5 h,"[1]; spleen, read-out: Spleen %IA/g",0.89 %ID/g
same,tissue uptake at 72 h,[1]; [10],2.42 %ID/g
same,tissue uptake at 1.5 h,[1]; [10],3.29 %ID/g
same,tissue to tissue ratio at 72 h,"[1]; tumor / adrenals, read-out: tumor/organ ratio, Adrenals",3.7
same,tissue to tissue ratio at 72 h,"[1]; tumor / bone, read-out: tumor/organ ratio, Bone",3.2
same,tissue to tissue ratio at 72 h,"[1]; tumor / large intestine (empty), read-out: tumor/organ ratio, Large intestine (empty)",1.4
same,tissue to tissue ratio at 72 h,"[1]; tumor / muscle, read-out: tumor/organ ratio, Muscle",6.9
same,tissue to tissue ratio at 72 h,"[1]; tumor / small intestine (empty), read-out: tumor/organ ratio, Small intestine (empty)",5.6
same,tissue to tissue ratio at 72 h,"[1]; tumor / stomach (empty), read-out: tumor/organ ratio, Stomach (empty)",0.4
same,tissue to tissue ratio at 1.5 h,"[1]; tumor/adrenals, read-out: tumor/organ ratio, Adrenals",2.2
same,tissue to tissue ratio at 72 h,[1]; [11],56.1
same,tissue to tissue ratio at 1.5 h,[1]; [11],4.3
same,tissue to tissue ratio at 1.5 h,"[1]; tumor/bone, read-out: tumor/organ ratio, Bone",3.6
same,tissue to tissue ratio at 72 h,[1]; [12],6.9
same,tissue to tissue ratio at 1.5 h,[1]; [12],5.5
same,tissue to tissue ratio at 1.5 h,"[1]; tumor/large intestine (empty), read-out: tumor/organ ratio, Large intestine (empty)",1.1
same,tissue to tissue ratio at 72 h,[1]; [13],2
same,tissue to tissue ratio at 1.5 h,[1]; [13],1.7
same,tissue to tissue ratio at 72 h,[1]; [14],1.8
same,tissue to tissue ratio at 1.5 h,[1]; [14],0.6
same,tissue to tissue ratio at 1.5 h,"[1]; tumor/muscle, read-out: tumor/organ ratio, Muscle",7.2
same,tissue to tissue ratio at 72 h,[1]; [15],9.9
same,tissue to tissue ratio at 1.5 h,[1]; [15],12.2
same,tissue to tissue ratio at 1.5 h,"[1]; tumor/small intestine (empty), read-out: tumor/organ ratio, Small intestine (empty)",2.5
same,tissue to tissue ratio at 72 h,[1]; [16],1
same,tissue to tissue ratio at 1.5 h,[1]; [16],2.1
same,tissue to tissue ratio at 1.5 h,"[1]; tumor/stomach (empty), read-out: tumor/organ ratio, Stomach (empty)",0.6
same,"tumor/organ ratio, Kidneys",[2]; 90 min p.i.,0.0
same,"tumor/organ ratio, Kidneys",[2]; 3 d p.i.,0.0
